Measured values as given in patent US20060246095A1, “Multiepitope polypeptides for cancer immunotherapy” (HADASIT MEDICAL RESEARCH SERVICES & DEVELOPMENT LTD., priority 2003, published 2006).

Columns and labels:
Assay type in all cases: cell-based, human
[1] = system: T cell clones specific for different gp100 and MART-1 antigens; assay: Uptake of MEP protein by DC and presentation to T cell clones (IFN-γ secretion, FIG. 2); conditions: DC incubated with protein 4 hours
Procedure: DC incubated with MEP-Mel protein were able to specifically stimulate T cell clones reactive to different MEP epitopes of gp100 and MART-1. T cell stimulation was estimated by the amount of IFN-γ secreted to the culture medium (pg/ml).
T cell clones tested: GP 100-209a and 209b specific for gp100 209-217 epitope, GP 100-280 specific for gp100 280-288 epitope, GP 100-154 specific for a gp100 epitope not present in MEP (used as control) and MART-1 specific for the epitope 27-35.
Immature DC were incubated with MEP protein for 4 hours. After DC maturation, dendritic cells were incubated in the presence of T cell clones specific for different gp100 and MART-1 antigens. T cell stimulation was estimated by measuring the interferon gamma (IFN-γ) secretion to the medium. […] A MART-1 specific T cell clone was also found to be stimulated.

[2] = system: T cell clone HT 2D9 (A2 restricted gp100 epitope 280-288); assay: Recognition assay with proteasome inhibition (IFN-γ release ELISA), clone HT 2D9; conditions: transfected DC
Procedure: (§1) Dendritic cells were isolated from cytopheresis MNCs of melanoma patients with the HLA haplotypes HIA-A*0201 and HLA-DRβ1*0401. DC were generated from plastic adherent PBMCs cultured in RPMI with 10% human AB-serum, L-glutamine, penicillin-streptomycin, supplemented with GM-CSF 1000 IU/ml and IL-4 1000 IU/ml. By day 6, immature DC were harvested for electroporation.
(§2) 2.5-3×10^6 DC were re-suspended in 100 μl nucleofector solution and added to 5 μg of DNA plasmid in 2-mm electrode gap cuvettes. Transfected DC were immediately plated with CM containing GM/IL4 or let mature using TNFα 100 ng/ml and PGE2 1000 ng/ml. GFP-transfected DCs were collected 16-24 hours later for FACS analysis.
HT 2D9 which reacts with A2 restricted gp100 epitope 280-288.
(§3) T cell clones were co-incubated with DC in flat 96-well plate for 24 hours. DC were plated immediately after their transfection or pulsing in 6 separated plates, in the presence of GM CSF and IL-4. 1×10^5 T cells were added to 1×10^5 pulsed or transfected DC. In the longitudinal study, T cell clones were added to the transfected/pulsed DC at the following time points: T0=immediately, +12=after 12 hours, 24, 36, 48 and 72 hours. Supernatants were collected after overnight incubation. Interferon gamma release assay was performed to evaluate T cell stimulation using the ELISA method, results are presented in pg/ml.
(§4) Lactacystin was added to DC at concentrations of 25 μM and 50 μM, 4 hours post transfection. DC were incubated with lactacystin for 70 minutes and then washed twice.
(§5) Responding T cells were added after washing the lactacystin and co-incubated. Supernatents were collected after 20 hours.
Control DC were transfected and incubated with responder T cell clones within the same time frame, without lactacystin. […]

[3] = system: T cell clone RB-154 (gp100 154-162 peptide); assay: Recognition assay for peptide presentation by DC (IFN-γ release ELISA), clone RB-154; conditions: T = 0 hours, RB-154
Procedure: as §1, §2
(§6) DC were pulsed with 1 μg/ml of the relevant peptides at 1×10^6 cells/ml. Stimulants were added after 1 hour incubation without washing the peptide.
as §3, with “Interferon gamma release assay was performed to evaluate T cell stimulation using the ELISA method, results are presented in pg/ml.” left out

[4] = system: TIL 1383 (A2 restricted tyrosinase epitope 369-377); assay: Recognition assay for peptide presentation by DC (IFN-γ release ELISA), TIL 1383
Procedure: as §1, §2, §6
TIL 1383 which recognizes the A2 restricted tyrosinase epitope 369-377.
as §3, §4, §5
(§7) For recognition assay of DC epitope presentation, 1×10^5 cells from different T cell clones, that were grown from PBMCs of patients, and were restricted to particular melanoma antigen peptides, were co-incubated with 1×10^5 pulsed or transfected DC, in the presence of GM-CSF and IL-4. T cell clones were added to the transfected/pulsed DC at the following time points: T=0 immediately, T=12, 24, 36, 48, 72 hours. Supernatant was collected after overnight incubation and was subjected to interferon gamma release assay, in order to evaluate the specific T cell activity towards the particular peptide presented by the DC cells.
(§8) The results shown in the following tables represent the amount of Interferon-γ (pg/ml) secreted to the culture medium as an index for T cell stimulation.

[5] = system: DC with CM (no T cell clone); assay: Recognition assay, CM in place of a T cell clone (IFN-γ background of DC); conditions: CM instead of T cell clone
Procedure: as §1, §2, §6, §3, §7, §8

[6] = system: T cell clone BR-B8 (DR4-restricted gp100 epitope 44-59); assay: Recognition assay for peptide presentation by DC (IFN-γ release ELISA), clone BR-B8; conditions: transfected DC, BR-B8
Procedure: as §1, §2
pcDNA-MEP and pcDNA-gp100 were co-transfected to detect Class II antigen presentation as an internal control.
BR-B8 which recognizes the DR4-restricted gp100 epitope 44-59.
as §3, §4, §5
For recognition assay of DC epitope presentation, 1×10^5 cells from different T cell clones, that were grown from PBMCs of patients, and were restricted to particular melanoma antigen peptides, were co-incubated with 1×10^5 pulsed or transfected DC, in the presence of GM-CSF and IL-4. […]

[7] = system: T cell clone CK3H6 (A2 restricted gp100 epitope 209-217); assay: Recognition assay for peptide presentation by DC (IFN-γ release ELISA), T cell clone CK3H6; conditions: CK3H6
Procedure: as §1, §2, §6
CK3H6 which recognizes the A2 restricted gp100 epitope 209-217.
as §3, §4, §5, §7, §8

[8] = transfected DC, Lactacystin 25 μM
[9] = transfected DC, Lactacystin 50 μM
[10] = transfected or peptide-pulsed DC, Donor 1, T = 12 hours
[11] = transfected or peptide-pulsed DC, Donor 1, T = 48 hours
[12] = transfected or peptide-pulsed DC, Donor 1, T = 72 hours
[13] = transfected or peptide-pulsed DC, Donor 2, T = 12 hours
[14] = transfected or peptide-pulsed DC, Donor 2, T = 24 hours
[15] = transfected or peptide-pulsed DC, Donor 2, T = 36 hours
[16] = transfected or peptide-pulsed DC, Donor 2, T = 48 hours
[17] = transfected or peptide-pulsed DC, Donor 2, T = 72 hours

B1: MEP-mel: melanoma multiepitope polypeptide, SEQ ID NO: 2 or 57; in Tables 2-9 delivered by transfecting DC with pcDNA3-MEP-Mel plasmid (protein)
chain: PGTMGSCRKSYYLEPGPVTVRKSYLIMDQVPFSVRKSYLYMDGTMSQVRKSYLAGIGILTVRKSYYLEPGPVTVALLIMDQVPFSVALLYMDGTMSQVALLLAGIGILTVSSLYLEPGPVTVAAYIMDQVPFSVSSLYMDGTMSQVAAYLAGIGILTV
Q: Which results are given for B1?
A: T cell stimulation (IFN-γ secretion) ([1]; MART-1 specific T cell clone): stimulated; T cell stimulation (IFN-γ secretion) ([1]; clone recognizing gp100 epitope 280-288): also stimulated; T cell stimulation (IFN-γ secretion) ([1]; clones 209a and 209b reactive to gp100 epitope 209-217): highly stimulated; Interferon-γ secreted to the culture medium ([2]; Lactacystin 0): 1642 pg/mL; Interferon-γ secreted to the culture medium ([2]; Lactacystin 25 μM): 244 pg/mL; Interferon-γ secreted to the culture medium ([2]; Lactacystin 50 μM): 56 pg/mL; Interferon-γ secreted to the culture medium ([3]; transfected DC from donor 1): 66 pg/mL; Interferon-γ secreted to the culture medium ([3]; transfected DC from donor 2): 132 pg/mL; Interferon-γ secreted to the culture medium ([4]; transfected DC from donor 1, T = 0 hours, TIL 1383): 111 pg/mL; Interferon-γ secreted to the culture medium ([4]; transfected DC from donor 2, T = 0 hours, TIL 1383): 387 pg/mL; Interferon-γ secreted to the culture medium ([4]; transfected DC, Lactacystin 0, TIL1383): 229 pg/mL; Interferon-γ secreted to the culture medium ([4]; transfected DC, Lactacystin 25 μM, TIL1383): 25 pg/mL; Interferon-γ secreted to the culture medium ([4]; transfected DC, Lactacystin 50 μM, TIL1383): 0 pg/mL; Interferon-γ secreted to the culture medium ([5]; transfected DC, Donor 1, T = 24 hours): 94 pg/mL; Interferon-γ secreted to the culture medium ([5]; transfected DC, Donor 1, T = 36 hours): 102 pg/mL; Interferon-γ secreted to the culture medium ([5]; transfected DC, Lactacystin 0): 5 pg/mL; Interferon-γ secreted to the culture medium [5, 8]: 0 pg/mL; Interferon-γ secreted to the culture medium [5, 9]: 51 pg/mL; Interferon-γ secreted to the culture medium [5, 10]: 120 pg/mL; Interferon-γ secreted to the culture medium [5, 11]: 33 pg/mL; Interferon-γ secreted to the culture medium [5, 12]: 18 pg/mL; Interferon-γ secreted to the culture medium [5, 13]: 248 pg/mL; Interferon-γ secreted to the culture medium [5, 14]: 292 pg/mL; Interferon-γ secreted to the culture medium [5, 15]: 191 pg/mL; Interferon-γ secreted to the culture medium [5, 16]: 260 pg/mL; Interferon-γ secreted to the culture medium [5, 17]: 38 pg/mL; Interferon-γ secreted to the culture medium ([6]; Lactacystin 0): 188 pg/mL; Interferon-γ secreted to the culture medium ([6]; Lactacystin 25 μM): 85 pg/mL; Interferon-γ secreted to the culture medium ([6]; Lactacystin 50 μM): 16 pg/mL; Interferon-γ secreted to the culture medium ([7]; transfected DC from donor 1, T = 0 hours): >2000 pg/mL; Interferon-γ secreted to the culture medium ([7]; transfected DC from donor 2, T = 0 hours): >2000 pg/mL; Interferon-γ secreted to the culture medium ([7]; transfected DC, Lactacystin 0): 705 pg/mL; Interferon-γ secreted to the culture medium [7, 8]: 73 pg/mL; Interferon-γ secreted to the culture medium [7, 9]: 36 pg/mL; Interferon-γ secreted to the culture medium [7, 10]: >2000 pg/mL; Interferon-γ secreted to the culture medium ([7]; transfected or peptide-pulsed DC, Donor 1, T = 24 hours): >2000 pg/mL; Interferon-γ secreted to the culture medium ([7]; transfected or peptide-pulsed DC, Donor 1, T = 36 hours): >2000 pg/mL; Interferon-γ secreted to the culture medium [7, 11]: >2000 pg/mL; Interferon-γ secreted to the culture medium [7, 12]: 1808 pg/mL; Interferon-γ secreted to the culture medium [7, 13]: >2000 pg/mL; Interferon-γ secreted to the culture medium [7, 14]: >2000 pg/mL; Interferon-γ secreted to the culture medium [7, 15]: >2000 pg/mL; Interferon-γ secreted to the culture medium [7, 16]: >2000 pg/mL; Interferon-γ secreted to the culture medium [7, 17]: 1328 pg/mL
